# Changes are numbered by the printed parent chain.
# B1: DARPin® protein #19 (designed binder)
# chain: MRGSHHHHHHGSDLGKKLLEAARAGQDDEVRELLKAGADVNAKDTHGWTPLHVAALEGHLEIVEVLLKAGAYVNAKDEWGQTPLHVAAWRGHLEIVEVLLKAGADVNAKDRYGWTPLHIAAWLGHLEIAEVLLKAGADVNAQDKSGKTPADLAADAGQEDIVEVLQKLN
# B2: DARPin® protein #26 (designed binder)
# chain: MRGSHHHHHHGSDLGKKLLEAARAGQDDEVRELLKAGADVNAKDHAGQTPLHIAALRGHLEIVEVLLKAGADVNAKDKYGQTPLHLAAILGHLEIVEVLLKAGADVNAKDQEGDTPLHIAAWQGHLEIVEVLLKAGADVNAQDKSGKTPADLAADAGHEDITEVLQKLN
# B3: DARPin® protein #11 (designed binder)
# chain: MRGSHHHHHHGSDLGWKLLSAAWQGQDDEVRILLAAGADVNAKDTFGTTPLHWAAHAGHLEIVEVLLKAGADVNAKDQWGTTPLHYAAYYGHLEIVEVLLKAGADVNAQDDKGFTPADLAAIVGHEDIAEVLQKLN
# B4: DARPin® protein #15 (designed binder)
# chain: MRGSHHHHHHGSDLGQKLLYAAYYGQDDEVRILLAAGADVNAKDFFGTTPLHWAAHAGHLEIVEVLLKAGADVNAKDQWGTTPLHYAAYQGHLEIVEVLLKAGADVNAQDTTGATPADLAAQAGHEDIAEVLQKLN
# B5: DARPin® protein #12 (designed binder)
# chain: B3 chain with W16Q, S20H, A21T, W23Y, Q24D, T45F
# B6: DARPin® protein #16 (designed binder)
# chain: MRGSHHHHHHGSDLGAKLLNAAFFGQDDEVRILLAAGADVNAKDDYGHTPLHWAAVTGHLEIVEVLLKAGADVNAKDWLGETPLHHAAYEGHLEIVEVLLKAGADVNAQDEQGETPADLAAYEGHEDIAEVLLKAGADVNAQDDKGFTPADLAAIVGHEDIAEVLQKLN
# B7: DARPin® protein #21 (designed binder)
# chain: MRGSHHHHHHGSDLGEKLLTAAYYGQDDEVRILLAAGADVNAKDKQGLTPLHYAAAVGHLEIVEVLLKAGTDVNAKDFYGETPLHLAASRGHLEIVEVLLKAGADVNAQDKSGKTPADLAADAGHEDIAEVLQKAA
# B8: DARPin® protein #24 (designed binder)
# chain: B7 chain with T20N, K45V, Q46K, L48E, T71A, F78Q, E81A, S89Y, R90K
# B9: DARPin® protein #20 (designed binder)
# chain: B7 chain with T20H, K45D, Y53L, V57I, T71A, F78A, S89R
# B10: DARPin® protein #17 (designed binder)
# chain: MRGSHHHHHHGSDLGEKLLYAAYYGQDDEVRILLAAGADVNAKDHVGLTPLHYAAAIGHLEIVEVLLKAGADVNAKDHYGYTPLHYAAYKGHLEIVEVLLKAGADVNAQDSAGHTPADLAAHHGHEDIAEVLQKLN
# B11: DARPin® protein #22 (designed binder)
# chain: MRGSHHHHHHGSDLGEKLLWAAWEGQGDEVRILLAAGADVNAKDLTGRTPLHFAAHSGHLEIVEVLLKAGADVNAKDNAGRTPLHLAAELGHLEIVEVLLKAGADVNAQDKSGKTPADLAADAGHEDIAEVLQKAA
# B12: DARPin® protein #23 (designed binder)
# chain: B11 chain with W23Y, E24L, G27D, L45A
# B13: DARPin® protein #13 (designed binder)
# chain: MRGSHHHHHHGSDLGLKLLYAAAEGQDDEVRILLAAGADVNAKDTRGQTPLHYAAWFGHLEIVEVLLKAGADVNAKDWSGDTPLHVAAWRGHLEIVEVLLKAGADVNAQDNSGNTPADLAAWIGHEDIAEVLQKLN
# B14: DARPin® protein #18 (designed binder)
# chain: MRGSHHHHHHGSDLGYKLLYAAAYGQDDEVRILLAAGADVNAKDQYGETPLHHAASHGHLEIVEVLLKAGADVNAKDTLGDTPLHLAAVVGHLEIVEVLLKAGADVNAQDTEGKTPADLAAYTGHEDIAEVLQKLN
# Biological target: T1, biotinylated human 4-1BB (recombinant Fc fusion protein of the extracellular domain of human 4-1BB) (human, UniProt Q07011 24-186, biotinylated (site not stated))
# T1 construct: Bought from BPS Bioscience; tie to the Fc fusion is by the Materials paragraph; also called h4-1BB; CD137; not shown: Fc part of the purchased fusion (BPS Bioscience)
# Assay: SPR (ProteOn), biotinylated human 4-1BB on NLC chip, PBST
# Description: Briefly, biotinylated human 4-1 BB was diluted in PBST (PBS, pH 7.4 containing 0.005% Tween 20®) and coated on a NLC chip (BioRad) to a level of around 320 resonance units (RU) (600 RU for single trace SPR measurements). The interaction of ankyrin repeat protein and h4-1 BB was then measured by injecting 200 μl running buffer (PBS, pH 7.4 containing 0.005% Tween 20®) containing serial dilutions of ankyrin repeat proteins covering a concentration range between 50 nM and 0.5 nM for multi-trace SPR measurements or 50 nM for single trace measurements (on-rate measurement), followed by a running buffer flow for at least 30 minutes at a constant flow rate of 100 μl/min (off-rate measurement). The regeneration was performed using 30 μl of 10 mM Glycine pH 2 followed by 30 μl of 124 mM H₃PO₄. The signals (i.e. resonance unit (RU) values) of the interspots and a reference injection (i.e. injection of running buffer only) were subtracted from the RU traces obtained after injection of ankyrin repeat protein (double-referencing). Based on the SPR traces obtained from the on-rate and off-rate measurements, the on- and off-rate of the corresponding ankyrin repeat protein—4-1 BB interaction was determined.
# Dissociation constants (KD) were calculated from the estimated on- and off-rates using standard procedures known to the person skilled in the art.
row,Kd,Binder
1,1.6 nM,B1
2,0.83 nM,B2
3,0.38 nM,B3
4,5 nM,B4
5,0.74 nM,B5
6,1.6 nM,B6
7,0.16 nM,B7
8,0.29 nM,B8
9,0.48 nM,B9
10,0.5 nM,B10
11,0.13 nM,B11
12,0.6 nM,B12
13,0.69 nM,B13
14,1.47 nM,B14
